# T1: BPDEtide, RKISASEFDRPLR (peptide B, type-I PKG peptide substrate)
# T1 chain: RKISASEFDRPLR
# T2: peptide A, RKISASGP (type-I PKG peptide substrate)
# T2 chain: RKISASGP
# T3: peptide C, QKRPRRKDTP (type-II PKG substrate)
# T3 chain: QKRPRRKDTP
# T4: peptide D, RKRSRAE (H2Btide, type-I PKG peptide substrate)
# T4 chain: RKRSRAE
# Experiments:
# [1] = biological target: T1, BPDEtide, RKISASEFDRPLR (peptide B, …)
# [2] = biological target: T2, peptide A, RKISASGP (type-I PKG peptide …)
# [3] = biological target: T3, peptide C, QKRPRRKDTP (type-II PKG …)
# [4] = biological target: T4, peptide D, RKRSRAE (H2Btide, type-I PKG …)
# [5] = biological target: purified recombinant VASP-GST (vasodilator-stimulated phosphoprotein with C-terminal GST epitope tag), P70460
# [6] = biological target: recombinant mammalian ERK2 (MAPK p42 protein, bacterial recombinant, already containing phospho-tyrosine-185)
# recombinant mammalian ERK2 (MAPK p42 protein, bacterial recombinant, already containing phospho-tyrosine-185), sequence (P28482 2-360): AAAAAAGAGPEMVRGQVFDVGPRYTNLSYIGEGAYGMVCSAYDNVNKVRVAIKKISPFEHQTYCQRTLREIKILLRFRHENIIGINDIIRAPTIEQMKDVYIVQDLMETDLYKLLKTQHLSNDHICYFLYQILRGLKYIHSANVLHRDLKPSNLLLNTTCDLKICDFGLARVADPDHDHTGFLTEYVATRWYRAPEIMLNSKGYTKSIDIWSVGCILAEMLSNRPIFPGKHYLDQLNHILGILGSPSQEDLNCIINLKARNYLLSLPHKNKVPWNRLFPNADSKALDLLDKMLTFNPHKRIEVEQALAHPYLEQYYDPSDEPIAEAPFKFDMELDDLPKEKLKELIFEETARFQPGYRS
# purified recombinant VASP-GST (vasodilator-stimulated phosphoprotein with C-terminal GST epitope tag), P70460, sequence (P70460 whole entry): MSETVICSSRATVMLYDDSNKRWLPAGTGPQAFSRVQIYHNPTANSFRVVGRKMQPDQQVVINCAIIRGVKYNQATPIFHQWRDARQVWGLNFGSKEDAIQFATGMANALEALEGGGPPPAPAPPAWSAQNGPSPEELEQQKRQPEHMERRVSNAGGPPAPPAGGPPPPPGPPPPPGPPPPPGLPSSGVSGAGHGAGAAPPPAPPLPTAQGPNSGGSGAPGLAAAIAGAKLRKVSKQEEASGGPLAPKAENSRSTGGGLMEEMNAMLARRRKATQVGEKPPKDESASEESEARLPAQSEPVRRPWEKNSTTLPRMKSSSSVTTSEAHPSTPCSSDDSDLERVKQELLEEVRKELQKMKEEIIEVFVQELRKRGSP
protein,measurement,setting,value
"recombinant His-apPKG (Aplysia protein kinase G with N-terminal His tag, expressed in baculovirus/Sf9 cells) (protein) MGNGASSNTHFTIDGESMDVHKVKALVPELRHELRRRDKIIEQYDSQVRQKDELLKEKEAEIARLKEEVHKLKSVLQLKVDTLKAQESKPDLLSTIDENQAEPTAPRGPAKKQGVSGESPSSKTLGYVDLTHHEKDFKSKQLIKDAILSNEFIKVLAATQLREIIDCMYEKRVPKACYIIKGGERGEHLYVCADGLLEVHKEDKRLGEIKSGGLFGELAILYNCKRTASVKAVTHTTLWVLDRRVFQAIMMKTGLQRREENMAFLKSVPLLKNLPSDKLAKMSDVLEYDFFHENEYIIREGAAGDTFFILNKGEVKVTQKIAGHAEPKEVRRLKRGDYFGEKALLSEDRRTANVIALPPGVECLTVDRESFTQFVGDLNELRNKDYGDEARGAERRSGSDSTVSPVSERPVAKEFENCSLDDLQLVTTLGMGGFGRVELVQLSKEKGKTFALKCLKKKHIVETRQQEHIYSEKKIMMEADSPFITKLHKTFRDRKYVYMLMEVCLGGELWTILRDRGNFDDLTARFCVACVLEAFSYLHAKGIIYRDLKPENLLLDARGYVKLVDFGFAKKIGVGKKTWTFCGTPEYVAPEIILNKGHDHSADYWSLGILMYELLNGTPPFSGSDPMRTYNIILKGIDHIEFPKKISRSAHVLIKKLCRDNPMERLGYGKNGISDIRKNKWFQGFDWDGLMDLTLTPPIVPKVKNPTDTSNFDSYPRDMDIAADELSGWDIDF",dual phosphorylation of ERK2 by apPKG in the presence of 1 µg of BPDEtide (Western blot with Ab^pTpYmapk),[1],"The activation was specific, because it was reduced in the presence of BPDEtide"
same,kinase activity (transfer of ^32P from [^32P]ATP to BPDEtide),[1],Inactive apPKG was activated by 100 nM 8-Br-cGMP and readily phosphorylated BPDEtide
same,kinase activity on peptide substrates,[1],both kinases readily phosphorylated several PKG peptide substrates
same,kinase activity on peptide substrates,[2],both kinases readily phosphorylated several PKG peptide substrates
same,kinase activity on peptide substrates,[3],neither kinase phosphorylated peptide C
same,kinase activity on peptide substrates,[4],both kinases readily phosphorylated several PKG peptide substrates
same,phosphorylation of VASP at serine 239 (Western blot with anti-phospho-VASP (Ser 239)),[5],both the bovine and Aplysia kinases phosphorylated this site
same,ERK2 activity (production of phospho-Elk1) compared with activation by MEK1,[6],apPKG produced an ERK2 with similar activity as that produced by MEK1
same,activation of ERK2 (phosphorylation of Elk1 by ERK2 after incubation with apPKG),[6],apPKG activated ERK2 to phosphorylate Elk1
same,phosphorylation of ERK2 at T183 (Western blot with antibody to ERKpT183),[6],there was an increase in the phosphorylation of the -T- in the presence of apPKG
same,phosphorylation of ERK2 at Y185 (Western blot with antibody to ERKpY185),[6],There was no increase in phosphorylation of the -Y- when ERK2 was incubated with apPKG
recombinant bovine PKG type-Iα (protein) MSELEEDFAKILMLKEERIKELEKRLSEKEEEIQELKRKLHKCQSVLPVPSTHIGPRTTRAQGISAEPQTYRSFHDLRQAFRKFTKSERSKDLIKEAILDNDFMKNLELSQIQEIVDCMYPVEYGKDSCIIKEGDVGSLVYVMEDGKVEVTKEGVKLCTMGPGKVFGELAILYNCTRTATVKTLVNVKLWAIDRQCFQTIMMRTGLIKHTEYMEFLKSVPTFQSLPEEILSKLADVLEETHYENGEYIIRQGARGDTFFIISKGKVNVTREDSPNEDPVFLRTLGKGDWFGEKALQGEDVRTANVIAAEAVTCLVIDRDSFKHLIGGLDDVSNKAYEDAEAKAKYEAEAAFFANLKLSDFNIIDTLGVGGFGRVELVQLKSEESKTFAMKILKKRHIVDTRQQEHIRSEKQIMQGAHSDFIVRLYRTFKDSKYLYMLMEACLGGELWTILRDRGSFEDSTTRFYTACVVEAFAYLHSKGIIYRDLKPENLILDHRGYAKLVDFGFAKKIGFGKKTWTFCGTPEYVAPEIILNKGHDISADYWSLGILMYELLTGSPPFSGPDPMKTYNIILRGIDMIEFPKKIAKNAANLIKKLCRDNPSERLGNLKNGVKDIQKHKWFEGFNWEGLRKGTLTPPIIPSVASPTDTSNFDSFPEDNDEPPPDDNSGWDIDF,kinase activity on peptide substrates,[1],both kinases readily phosphorylated several PKG peptide substrates
same,kinase activity on peptide substrates,[2],both kinases readily phosphorylated several PKG peptide substrates
same,kinase activity on peptide substrates,[3],neither kinase phosphorylated peptide C
same,kinase activity on peptide substrates,[4],both kinases readily phosphorylated several PKG peptide substrates
same,phosphorylation of VASP at serine 239 (Western blot with anti-phospho-VASP (Ser 239)),[5],both the bovine and Aplysia kinases phosphorylated this site
